EP3088890B1 (Chugai Seiyaku Kabushiki Kaisha, dated 2020)

Columns and labels:
[1] = target: T1, AW3, C-terminally His-tagged recombinant product of positions 1 to 218 of GPC3 (human, UniProt P51654 25-218); assay: Western blot, pellets of CHO cells expressing the product
T1 construct: Expressed in CHO cells, cell pellets used in Western blot; The range is as printed and starts at position 1; not shown: C-terminal His tag

[2] = target: T2, AW2, C-terminally His-tagged recombinant product of positions 1 to 196 of GPC3 (human, UniProt P51654 25-196); assay: as above
T2 construct: Expressed in CHO cells, cell pellets used in Western blot; The range is as printed and starts at position 1; also called AW2 (1-196); not shown: C-terminal His tag
T2 sequence (P51654 25-196): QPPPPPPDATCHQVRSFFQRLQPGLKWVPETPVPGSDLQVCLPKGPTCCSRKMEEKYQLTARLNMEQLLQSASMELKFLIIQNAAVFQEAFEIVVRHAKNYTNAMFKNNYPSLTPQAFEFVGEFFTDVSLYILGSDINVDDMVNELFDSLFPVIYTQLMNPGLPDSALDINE

[3] = target: GPC3 core (sGPC3-His) protein (human) (UniProt P51654); assay: competition ELISA on plate-bound sGPC3; unlabeled GT30 (100-fold) against competitor biotin-labeled GT607
GPC3 core (sGPC3-His) protein (human), sequence (P51654 25-563 S495A/S509A): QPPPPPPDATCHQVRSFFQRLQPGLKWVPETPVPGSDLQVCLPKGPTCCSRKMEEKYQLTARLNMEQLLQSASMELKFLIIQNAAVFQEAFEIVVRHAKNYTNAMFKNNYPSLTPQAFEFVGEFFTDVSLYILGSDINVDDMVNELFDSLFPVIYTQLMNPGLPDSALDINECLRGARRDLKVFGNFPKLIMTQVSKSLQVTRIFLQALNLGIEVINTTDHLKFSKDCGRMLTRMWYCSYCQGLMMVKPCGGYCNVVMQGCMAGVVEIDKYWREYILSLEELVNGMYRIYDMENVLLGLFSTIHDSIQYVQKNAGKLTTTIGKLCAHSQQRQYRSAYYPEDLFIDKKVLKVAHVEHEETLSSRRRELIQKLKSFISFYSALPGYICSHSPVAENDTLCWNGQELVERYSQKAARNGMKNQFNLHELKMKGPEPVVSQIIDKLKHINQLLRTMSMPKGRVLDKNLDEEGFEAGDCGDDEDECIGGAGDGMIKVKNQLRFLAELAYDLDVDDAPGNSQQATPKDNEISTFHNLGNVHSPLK

[4] = target: GPC3 core (sGPC3-His) protein (human) (UniProt P51654); assay: competition ELISA on plate-bound sGPC3; unlabeled GT30 (100-fold) against competitor biotin-labeled GT114
[5] = target: GPC3 core (sGPC3-His) protein (human) (UniProt P51654); assay: competition ELISA on plate-bound sGPC3; unlabeled GT30 (100-fold) against competitor biotin-labeled GT30; signal of the labeled antibody
[6] = target: GPC3 core (sGPC3-His) protein (human) (UniProt P51654); assay: competition ELISA on plate-bound sGPC3; unlabeled GT30 (100-fold) against competitor biotin-labeled GT607; signal of the labeled antibody
[7] = target: GPC3 core (sGPC3-His) protein (human) (UniProt P51654); assay: competition ELISA on plate-bound sGPC3; unlabeled GT30 (100-fold) against competitor biotin-labeled GT165; signal of the labeled antibody
[8] = target: T3, AW5, C-terminally His-tagged recombinant product of positions 1 to 357 of GPC3 (human, UniProt P51654 25-357); assay: Western blot analysis, CHO cell pellets
T3 construct: Expressed in CHO cells, cell pellets used in Western blot; The range is as printed and starts at position 1; also called AW5 (1-357); not shown: C-terminal His tag
T3 sequence (P51654 25-357): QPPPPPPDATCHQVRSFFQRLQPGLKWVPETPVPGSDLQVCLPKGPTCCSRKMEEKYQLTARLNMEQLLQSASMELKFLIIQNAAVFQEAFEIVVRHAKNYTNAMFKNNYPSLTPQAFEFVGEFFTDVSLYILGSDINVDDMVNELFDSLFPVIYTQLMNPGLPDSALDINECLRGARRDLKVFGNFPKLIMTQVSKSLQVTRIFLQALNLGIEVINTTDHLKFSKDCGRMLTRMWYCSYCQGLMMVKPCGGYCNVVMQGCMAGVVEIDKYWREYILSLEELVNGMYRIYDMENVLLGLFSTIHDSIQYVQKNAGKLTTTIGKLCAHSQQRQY

[9] = target: GPC3 core (sGPC3-His) protein (human) (UniProt P51654); assay: ELISA on plate-bound sGPC3; biotin-labeled GT30, no unlabeled antibody
[10] = target: GPC3 core (sGPC3-His) protein (human) (UniProt P51654); assay: competition ELISA on plate-bound sGPC3; unlabeled GT30 (100-fold) against competitor biotin-labeled GT165
[11] = target: T4, GPC3 peptide 321-350 (SEQ ID NO: 17) (human); assay: peptide ELISA, peptide on plate, antibody at 2 µg/mL
T4 construct: Synthetic 30-residue peptide of GPC3
T4 peptide: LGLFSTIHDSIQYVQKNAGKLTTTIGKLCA

[12] = target: GPC3 core (sGPC3-His) protein (human) (UniProt P51654); assay: competition ELISA on plate-bound sGPC3; unlabeled GT30 (100-fold) against competitor biotin-labeled GT114; signal of the labeled antibody
[13] = target: GPC3 core (sGPC3-His) protein (human) (UniProt P51654); assay: competition ELISA on plate-bound sGPC3; unlabeled GT30 (100-fold) inhibits competitor biotin-labeled GT30

T1 sequence (P51654 25-218): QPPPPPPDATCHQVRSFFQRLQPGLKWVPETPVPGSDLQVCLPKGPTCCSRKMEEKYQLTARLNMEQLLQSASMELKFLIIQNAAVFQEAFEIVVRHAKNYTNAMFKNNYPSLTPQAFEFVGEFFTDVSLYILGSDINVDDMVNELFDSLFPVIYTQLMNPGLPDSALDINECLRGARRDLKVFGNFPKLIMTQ

B1: GT30 antibody (antibody, IgG1, V domains shown)
VH: QVQLQQSGAELARPGASVKLSCRASGYTFTSYGISWMMQRTGQGLEWIGEIYPRSGITYYNEKFKGKATLTADKSSSTAYMQLSSLTSEDSAVYFCARDVSDGYLFPYWGQGTLVTVSA
VL: DIQMTQSPASLSASVGETVTITCRTSENIYSYLAWYQQKQGKSPQLLVYNAKTLPEGVPSRFSGSGSGTQFSLKINSLQPEDFGSYYCQHHYGTPPTFGGGTKLEIKR
**Q.** Does B1 bind [1]?
**A.** no binding

**Q.** Does B1 bind [2]?
**A.** no binding

**Q.** And the Inhibitory effect (%) [3]?
**A.** 3%

**Q.** And the Inhibitory effect (%) [4]?
**A.** < 0%

**Q.** And the O.D. 450 [5]?
**A.** 0.07 O.D. 450

**Q.** What about the O.D. 450 [6] of the same binder?
**A.** 2.12 O.D. 450

**Q.** And the O.D. 450 [7]?
**A.** 0.098 O.D. 450

**Q.** Does B1 bind [8]?
**A.** binds

**Q.** And the O.D. 450 [9]?
**A.** 1.84 O.D. 450

**Q.** And the Inhibitory effect (%) [10]?
**A.** 94%

**Q.** Does B1 bind [11]?
**A.** binds

**Q.** What about the O.D. 450 [12] of the same binder?
**A.** 2.31 O.D. 450

**Q.** And the Inhibitory effect (%) [13]?
**A.** 96%
